In patent US9255257B2, “PmST1 mutants for chemoenzymatic synthesis of sialyl lewis X compounds” (THE REGENTS OF THE UNIVERSITY OF CALIFORNIA, priority 2011, dated 2016):
Where a chain is given by its changes, count along the chain named. Numbers in names are those of the source.

Tests used:
[1] = test system: CC(=O)N[C@H]1[C@H]([C@H](O)[C@H](O)CO)O[C@](OP(=O)(O)OC[C@H]2O[C@@H](n3ccc(N)nc3=O)[C@H](O)[C@@H]2O)(C(=O)O)C[C@@H]1O; assay: α2-3-sialyltransferase activity, LacβMU as acceptor; assay type: biochemical, Pasteurella multocida; details: other: apparent, donor, LacβMU 1 mM, Tris-HCl pH 8.5, 37° C.
Protocol: (§1) To obtain the apparent kinetic parameters of LacβMU as the acceptor for the α2-3-sialyltransferase activity, the kinetic assays were performed in duplicate in reaction mixtures of 10 μL containing Tris-HCl buffer (100 mM, pH 8.5), a fixed concentration of CMP-Neu5Ac (1 mM), different concentrations of LacβMU (0.2, 0.5, 1.0, 2.0, 5.0, and 9.0 mM) and the mutant proteins (2 μg mL^−1 of E271F, 2 μg mL^−1 of R313Y, and 1.6 μg mL^−1 of E271F/R313Y). All reactions were allowed to proceed at 37° C. for 5 min (E271F), 7 min (R313Y), and 10 min (E271F/R313Y). The apparent kinetic parameters were obtained by fitting the experimental data (the average values of duplicate assay results) into the Michaelis-Menten equation using Grafit 5.0.
(§2) To obtain the apparent kinetic parameters of CMP-Neu5Ac as the donor for the α2-3-sialyltransferase activity, the kinetic assays were performed in duplicate in reaction mixtures of 10 μL containing Tris-HCl buffer (100 mM, pH 8.5), a fixed concentration of LacβMU (1 mM), different concentrations of CMP-Neu5Ac (0.1, 0.2, 0.5, 1.0, 2.0, 5.0, 10.0 and 20.0 mM) and the mutant proteins (2 μg mL^−1 of E271F, 2 μg mL^−1 of R313Y, and 1.6 μg mL^−1 of E271F/R313Y). All reactions were allowed to proceed at 37° C. for 2 min (E271F), 7 min (R313Y), and 5 min (E271F/R313Y). The apparent kinetic parameters were obtained by fitting the experimental data (the average values of duplicate assay results) into the Michaelis-Menten equation using Grafit 5.0.
(§3) All the sialidase and α2-3-sialyltransferase assays were performed in an HPLC system. Reactions were stopped by adding 10 μL of ethanol. After necessary dilutions were performed to adjust the concentrations of the fluorescent-labeled compounds, the samples were then kept on ice until aliquots of 8 μL were injected and analyzed by a Shimadzu LC-6AD system equipped with a membrane on-line degasser, a temperature control unit, and a fluorescence detector (Shimadzu RF-10AXL). A reverse-phase Premier C18 column (250×4.6 mm i.d., 5 μm particle size, Shimadzu) protected with a C18 guard column cartridge was used. The mobile phase was 25% acetonitrile. The fluorescent compounds LacβMU and Neu5Acα2-3LacβMU were detected by excitation at 325 nm and emission at 372 nm.

[2] = test system: Cc1cc(=O)oc2cc(O[C@@H]3O[C@H](CO)[C@@H](O[C@@H]4O[C@H](CO)[C@H](O)[C@H](O)[C@H]4O)[C@H](O)[C@H]3O)ccc12; assay: as above; assay type: biochemical, Pasteurella multocida; details: other: apparent, acceptor, CMP-Neu5Ac 1 mM, Tris-HCl pH 8.5, 37° C.
Protocol: as §1, §2, §3

[3] = test system: CC(=O)N[C@H]1[C@H]([C@H](O)[C@H](O)CO)O[C@@](O[C@H]2[C@@H](O)[C@@H](CO)O[C@@H](O[C@H]3[C@H](O)[C@@H](O)[C@H](Oc4ccc5c(C)cc(=O)oc5c4)O[C@@H]3CO)[C@@H]2O)(C(=O)O)C[C@@H]1O; assay: α2-3-sialidase activity, Neu5Acα2-3LacβMU as substrate; assay type: biochemical, Pasteurella multocida; details: other: apparent, MES pH 5.5, 37° C.
Protocol: Site-directed mutagenesis. Site-directed mutagenesis was carried out using the QuikChange multi-site-directed mutagenesis kit from Stratagene according to the manufacturer's protocol. The primers used were 5′-[…] -3′ (SEQ ID NO:32) for E271F and 5′-[…]-3′ (SEQ ID NO:33) for R313Y. The sites of mutations are underlined.
Protein Expression and Purification. The plasmids containing the mutant genes were transformed into E. coli BL21 (DE3). The E. coli cells were cultured in LB-rich media (10 g L^−1 tryptone, 5 g L^−1 yeast extract, and 10 g L^−1 NaCl) supplemented with ampicillin (100 μg mL^−1). Overexpression of the mutant proteins was achieved by adding 0.1 mM of isopropyl-1-thio-β-D-galactopyranoside (IPTG) to the E. coli culture when its OD600 nm reached 0.8. […]
as §3, with “Reactions were stopped by adding 10 μL of ethanol.” left out, “A reverse-phase Premier C18 column (250×4.6 mm i.d., 5 μm particle size, Shimadzu) protected with a C18 guard column cartridge was used. The mobile phase was 25% acetonitrile.” left out

[4] = test system: CC(=O)N[C@H]1[C@H]([C@H](O)[C@H](O)CO)O[C@](OP(=O)(O)OC[C@H]2O[C@@H](n3ccc(N)nc3=O)[C@H](O)[C@@H]2O)(C(=O)O)C[C@@H]1O; assay: purified protein, by the assay type; details: other: apparent
[5] = test system: CC(=O)N[C@H]1[C@H](Oc2ccc3c(C)cc(=O)oc3c2)O[C@H](CO)[C@@H](O[C@@H]2O[C@H](CO)[C@H](O)[C@H](O)[C@H]2O)[C@@H]1O[C@@H]1O[C@@H](C)[C@@H](O)[C@@H](O)[C@@H]1O; assay: purified protein, by the assay type; details: other: apparent; acceptor; WT; 37.0 °C
Protocol: Kinetics of the α2-3-sialyltransferase activity of PmST1 mutants by HPLC analysis. With LacβMU as the acceptor substrate, the reactions were performed in duplicate at 37° C. for 10 min (M144D) or 4 min (M144H) in a reaction mixture (10 μL) containing Tris-HCl (100 mM, pH 8.5), an enzyme (5 μg mL^−1), and different concentrations (0.2, 0.5, 1.0, 2.0, and 5.0 mM) of LacβMU with a fixed concentration (1 mM) of CMP-Neu5Ac or different concentrations (0.2, 0.5, 1.0, 2.0, 5.0, and 10.0 mM) of CMP-Neu5Ac with a fixed concentration (1 mM) of LacβMU. With Le^xβMU as the acceptor substrate, the reactions were carried out in duplicate at 37° C. for 9 min (M144D) or 10 min (M144H) in a reaction mixture (10 μL) containing CAPSO (100 mM, pH 9.5), an enzyme (M144D, 39 μg mL^−1 or M144H, 5 μg mL^−), and various concentrations of Le^xβMU (1.0, 5.0, 10.0, 15.0, 25.0, and 35.0 mM) with a fixed concentration (1 mM) of CMP-Neu5Ac or various concentrations (0.2, 0.5, 1.0, 2.0, 5.0, 10.0, 20.0, and 40.0 mM) of CMP-Neu5Ac with a fixed concentration (1 mM) of Le^xβMU. Reactions were stopped by adding 10 μL of pre-chilled ethanol. The mixtures were incubated on ice for 30 min and centrifuged at 13,000 rpm for 5 min. The supernatants were diluted with 25% acetonitrile and kept on ice until aliquots of 8 μL were injected and analyzed by the Shimadzu LC-6AD system equipped with a membrane on-line degasser, a temperature control unit, and a fluorescence detector (Shimadzu RF-10AXL). A reverse-phase Premier C18 column (250×4.6 mm i.d., 5 μm particle size, Shimadzu) protected with a C18 guard column cartridge was used. The mobile phase was 25% acetonitrile. The fluorophore (MU)-labeled compounds were detected by excitation at 325 nm and emission at 372 nm. The apparent kinetic parameters were obtained by fitting the experimental data (the average values of duplicate assay results) into the Michaelis-Menten equation using Grafit 5.0.

[6] = Apparent kinetics of the α2-3-sialidase activity (HPLC, fluorescent sialoside substrate); assay type: biochemical; details: substrate Neu5Acα2-3LacβMU
Protocol: All the sialidase and α2-3-sialyltransferase assays were performed in an HPLC system. Reactions were stopped by adding 10 μL of ethanol. […] The mobile phase was 25% acetonitrile.
Kinetics of the α2-3-sialidase activity of PmST1 mutants.

[7] = Kinetics of the donor (CMP-Neu5Ac) hydrolysis activity by capillary electrophoresis; assay type: biochemical
Protocol: The reactions were stopped by adding 10 μL of pre-chilled ethanol. The mixtures were incubated on ice for 30 min and centrifuged at 13,000 rpm for 5 min. The supernatants were diluted with borate buffer (25 mM, pH 9.5) and aliquotes of 5 μL each were injected to a Beckman Coulter P/ACE™ MDQ Capillary Electrophoresis system equipped with a capillary (60 cm×75 μm i.d.) and monitored at 254 nm. The apparent kinetic parameters were obtained by fitting the experimental data (the average values of duplicate assay results) into the Michaelis-Menten equation using Grafit 5.0.

[8] = donor hydrolysis, WT, Tris-HCl pH 8.5, 37° C., 15 min
[9] = donor, with Le^xβMU, WT, 37.0 °C

In the case of “Pasteurella multocida PmST1 double mutant E271F/R313Y of SEQ ID NO: 13 (E247F/R289Y of Δ24PmST1, SEQ ID NO: 11) (Pasteurella multocida; E271F/R313Y)”, the Km ([1]; E271F/R313Y) is reported as 340 ± 20 µM and the Km ([2]; E271F/R313Y) is reported as 540 ± 40 µM.

Molecule “Pasteurella multocida PmST1 mutant E271F of SEQ ID NO: 13 (E247F of Δ24PmST1, SEQ ID NO: 7) (Pasteurella multocida; E271F)” has a Km ([1]; E271F) of 180 ± 10 µM, a Km ([2]; E271F) of 710 ± 120 µM and a Km ([3]; E271F, 1 min) of 5700 ± 900 µM.

“Pasteurella multocida PmST1 mutant H311A (Pasteurella multocida; H311A)” showed a Km ([4]; donor hydrolysis, H311A, Tris-HCl pH 8.5, 37° C., 20 min) of 1800 ± 200 µM.

In the case of “Pasteurella multocida PmST1 mutant R313Y of SEQ ID NO: 13 (R289Y of Δ24PmST1, SEQ ID NO: 9) (Pasteurella multocida; R313Y)”, the Km ([1]; R313Y) is reported as 620 ± 40 µM, the Km ([2]; R313Y) is reported as 670 ± 50 µM and the Km ([3]; R313Y, 25 min) is reported as 51000 ± 5000 µM.

In the case of “Pasteurella multocida α2-3-sialyltransferase 1 (PmST1), wild type (WT), SEQ ID NO: 13 (Pasteurella multocida)”, the Km [5] is reported as 17000 ± 2000 µM, the kcat [5] is reported as 6.7 ± 0.3 s⁻¹ and the Km [4, 8] is reported as 1500 ± 200 µM. The kcat [4, 8] was 27 ± 1 s⁻¹, the kcat/Km [4, 8] was 18000 M⁻¹ s⁻¹ and the Km [4, 9] was 390 ± 30 µM. The kcat [4, 9] was 0.55 ± 0.01 s⁻¹.

B1: D141A (protein)
chain: MKNRRLNFKLFFLIIFSLFSTLSWSKTITLYLDPASLPALNQLMDFTQNNEDKTHPRIFGLSRFKIPDNIITQYQNIHFVELKDNRPTEALFTILDQYPGNIELNIHLNIAHSVQLIRPILAYRFKHLDRVSIQQLNLYDAGSMEYVDLEKEENKDISAEIKQAEKQLSHYLLTGKIKFDNPTIARYVWQSAFPVKYHFLSTDYFEKAEFLQPLKEYLAENYQKMDWTAYQQLTPEQQAFYLTLVGFNDEVKQSLEVQQAKFIFTGTTTWEGNTDVREYYAQQQLNLLNHFTQAEGDLFIGDHYKIYFKGHPRGGEINDYILNNAKNITNIPANISFEVLMMTGLLPDKVGGVASSLYFSLPKEKISHIIFTSNKQVKSKEDALNNPYVKVMRRLGIIDESQVIFWDSLKQL
With B1 the “decrease of α2-3-sialidase activity (catalytic efficiency kcat/Km) compared to wild-type PmST1” value (“decrease of α2-3-sialidase activity” for short) [6] was “about 7,300 fold” and the “decrease of efficiency of CMP-Neu5Ac (donor) hydrolysis activity compared to WT” value [7] was 1,000 fold.

B2: H311A (protein)
chain: B1 chain with A141D, H311A
In the case of B2, the “decrease of efficiency of CMP-Neu5Ac (donor) hydrolysis activity compared to WT” value [7] is reported as 16 fold.

B3: R313Y (protein, listed as Pasteurella multocida)
chain: B1 chain with A141D, R313Y
modifications: PmST1 wild-type glycosyltransferase family 80 (GT80), GT80 sialyltransferase, Pm0188Ph
With B3 the “decrease in sialidase kcat (turnover number) compared to wild-type PmST1” value [6] was 1,278 fold, the “decrease of α2-3-sialidase activity” value [6] was 2,639 fold and the “increase in sialidase Km value compared to wild-type PmST1” value [6] was 2 fold.

B4: E271F (protein, listed as Pasteurella multocida)
chain: B1 chain with A141D, E271F
modifications: PmST1 wild-type glycosyltransferase family 80 (GT80), GT80 sialyltransferase, Pm0188Ph
With B4 the “decrease in sialidase Km value compared to wild-type PmST1” value [6] was 4.2 fold, the “decrease in sialidase kcat (turnover number) compared to wild-type PmST1” value [6] was 250 fold and the “decrease of α2-3-sialidase activity” value [6] was “about 59 fold”.
